Residue numbers refer to the chain shown, from its start. In names and notes the source's numbering stands.
B1: VPS4A-FLAG-V13D: FLAG-tagged VPS4A with V13D substitution that prevents binding to MIM2 (protein, UniProt Q9UN37 1-437, looked up, variant V13D)
Vacuolar protein …: MTTSTLQKAIDLDTKATEEDKAKNYEEALRLYQHAVEYFLHAIKYEAHSDKAKESIRAKCVQYLDRAEKLKDYLRSKEKHGKKPVKENQSEGKGSDSDSEGDNPEKKKLQEQLMGAVVMEKPNIRWNDVAGLEGAKEALKEAVILPIKFPHLFTGKRTPWRGILLFGPPGTGKSYLAKAVATEANNSTFFSVSSSDLMSKWLGESEKLVKNLFELARQHKPSIIFIDEVDSLCGSRNENESEAARRIKTEFLVQMQGVGNNNDGTLVLGATNIPWVLDSAIRRRFEKRIYIPLPEEAARAQMFRLHLGSTPHNLTDANIHELARKTEGYSGADISIIVRDSLMQPVRKVQSATHFKKVCGPSRTNPSMMIDDLLTPCSPGDPGAMEMTWMDVPGDKLLEPVVCMSDMLRSLATTRPTVNADDLLKVKKFSEDFGQES
modifications: FLAG tag
B2: VPS4A(L64D)-FLAG: FLAG-tagged VPS4A with L64D substitution that prevents binding to MIM1 (protein, UniProt Q9UN37 1-437, looked up, variant L64D)
Vacuolar protein …: B1 Vacuolar protein … with D13V, L64D
modifications: FLAG tag

Test system: pUL71
Test: Co-transfection localisation of VPS4A-FLAG variants with pUL71, COS-7 cells
Type: cell-based, HCMV
Settings: COS-7, co-transfection
From the text: Human VPS4A-FLAG, C-terminally fused with the FLAG-tag epitope, was expressed from expression vector pBJ5-Vps4Flag (gift from A. Calistri, University of Padova, Italy). Cloning of this vector is described in detail in [100]. The VPS4-FLAGΔMIT variant, comprising VPS4A residues 119–437, was generated from pBJ5-Vps4Flag using primers bex_VPS4aa119-437 and Flag+Stop_rev. Point mutant VPS4A-FLAG-V13D was amplified using primers Vps4A-V13D_for and Flag+Stop_rev. Variant VPS4-FLAG-L64D was generated by fusion PCR where primers Vps4_for and Vps4A-L64D_rev generated a fragment that was used as forward primer in a second PCR together with primer Flag+Stop_rev to generate full-length VPS4A. All VPS4A variants were cloned using restriction enzymes into backbone vector pEF1/Myc-His C.
Intracellular localisation studies after transient expression were performed in COS-7 cells that were seeded with 3.3×10^4 cells per well on glass coverslips in a 24-well plate. The next day, cells were transfected with the respective DNAs by using Lipofectamine LTX (Invitrogen) according to the manufacturer’s protocol. Between 20 to 24 hours post-transfection, cells were fixed with 4% (v/v) paraformaldehyde (PFA) in PBS for 10 min at 4°C and prepared for localisation analysis by using indirect immunofluorescence staining.

Molecule | association of VPS4A variant with pUL71 at juxtanuclear compartments
B1 | prevents association
B2 | efficiently recruited by pUL71

Reference: paper PMC11218997, “Human cytomegalovirus deploys molecular mimicry to recruit VPS4A to sites of virus assembly” (PLOS Pathogens, 2024)
